± gives the standard deviation of the averaged measurements.
Experiment: total protein half-life in vivo (active degradation + dilution); higher = more stable protein
[1] = E. coli NCM3722 delta-clpP delta-lon delta-hslV, growth: N-lim chemostat, doubling time 6 h
[2] = E. coli NCM3722 delta-clpP, growth: N-lim chemostat, doubling time 6 h
[3] = E. coli NCM3722 delta-hslV, growth: N-lim chemostat, doubling time 6 h
[4] = E. coli NCM3722 delta-lon, growth: N-lim chemostat, doubling time 6 h
[5] = E. coli NCM3722 delta-smpB, growth: N-lim chemostat, doubling time 6 h
[6] = wild type E. coli NCM3722, growth: C-lim chemostat, doubling time 3 h
[7] = wild type E. coli NCM3722, growth: C-lim chemostat, doubling time 6 h
[8] = wild type E. coli NCM3722, growth: C-lim chemostat, doubling time 12 h
[9] = wild type E. coli NCM3722, growth: N-lim chemostat, doubling time 6 h
[10] = wild type E. coli NCM3722, growth: N-lim chemostat, doubling time 12 h
[11] = wild type E. coli NCM3722, growth: P-lim chemostat, doubling time 6 h
[12] = wild type E. coli NCM3722, growth: P-lim chemostat, doubling time 12 h

Row | Sequence | total protein half-life in vivo [1] [h] | total protein half-life in vivo [2] [h] | total protein half-life in vivo [3] [h] | total protein half-life in vivo [4] [h] | total protein half-life in vivo [5] [h] | total protein half-life in vivo [6] [h] | total protein half-life in vivo [7] [h] | total protein half-life in vivo [8] [h] | total protein half-life in vivo [9] [h] | total protein half-life in vivo [10] [h] | total protein half-life in vivo [11] [h] | total protein half-life in vivo [12] [h]
1 | MNTFSVSRLALALAFGVTLTACSSTPPDQRPSDQTAPGTSSRPILSAKEAQNFDAQHYFASLTPGAAAWNPSPITLPAQPDFVVGPAGTQGVTHTTIQAAVDAAIIKRTNKRQYIAVMPGEYQGTVYVPAAPGGITLYGTGEKPIDVKIGLSLDGGMSPADWRHDVNPRGKYMPGKPAWYMYDSCQSKRSDSIGVLCSAVFWSQNNGLQLQNLTIENTLGDSVDAGNHPAVALRTDGDQVQINNVNILGRQNTFFVTNSGVQNRLETNRQPRTLVTNSYIEGDVDIVSGRGAVVFDNTEFRVVNSRTQQEAYVFAPATLSNIYYGFLAVNSRFNAFGDGVAQLGRSLDVDANTNGQVVIRDSAINEGFNTAKPWADAVISNRPFAGNTGSVDDNDEIQRNLNDTNYNRMWEYNNRGVGSKVVAEAKK | 5.8 ± 0.063 | 7.06 ± 1.3 | 6.54 ± 0.33 | 6.89 ± 0.2 | 5.993 ± 0.019 | 3.15 ± 0.05 | 6.27 ± 0.39 | 11.6 ± 0.95 | 6.28 ± 0.13 | 14.1 ± 0.59 | 6.3 ± 0.14 | 13.7 ± 0.19
2 | MNTIASVTLPHHVHAPRYDRQQLQSRIVHFGFGAFHRAHQALLTDRVLNAQGGDWGICEISLFSGDQLMSQLRAQNHLYTVLEKGADGNQVIIVGAVHECLNAKLDSLAAIIEKFCEPQVAIVSLTITEKGYCIDPATGALDTSNPRIIHDLQTPEEPHSAPGILVEALKRRRERGLTPFTVLSCDNIPDNGHVVKNAVLGMAEKRSPELAGWIKEHVSFPGTMVDRIVPAATDESLVEISQHLGVNDPCAISCEPFIQWVVEDNFVAGRPAWEVAGVQMVNDVLPWEEMKLRMLNGSHSFLAYLGYLSGFAHISDCMQDRAFRHAARTLMLDEQAPTLQIKDVDLTQYADKLIARFANPALKHKTWQIAMDGSQKLPQRMLAGIRIHQGRETDWSLLALGVAGWMRYVSGVDDAGNAIDVRDPLSDKIRELVAGSSSEQRVTALLSLREVFGDDLPDNPHFVQAIEQAWQQIVQFGAHQALLNTLKI | 5.54 ± 0.38 | – | – | – | – | 0.36 ± 0.057 | 0.863 | 0.917 | – | – | – | –
3 | MNTIFSARIMKRLALTTALCTAFISAAHADDLNIKTMIPGVPQIDAESYILIDYNSGKVLAEQNADVRRDPASLTKMMTSYVIGQAMKAGKFKETDLVTIGNDAWATGNPVFKGSSLMFLKPGMQVPVSQLIRGINLQSGNDACVAMADFAAGSQDAFVGLMNSYVNALGLKNTHFQTVHGLDADGQYSSARDMALIGQALIRDVPNEYSIYKEKEFTFNGIRQLNRNGLLWDNSLNVDGIKTGHTDKAGYNLVASATEGQMRLISAVMGGRTFKGREAESKKLLTWGFRFFETVNPLKVGKEFASEPVWFGDSDRASLGVDKDVYLTIPRGRMKDLKASYVLNSSELHAPLQKNQVVGTINFQLDGKTIEQRPLVVLQEIPEGNFFGKIIDYIKLMFHHWFG [P0AEB2] | 6.19 ± 0.7 | 6.72 ± 0.74 | 6.22 ± 0.15 | 6.61 ± 0.36 | 6.03 ± 0.14 | 3.24 ± 0.07 | 6.05 ± 0.17 | 12 ± 2.8 | 6.23 ± 0.14 | 14.5 ± 2 | 6.1 ± 0.093 | 13.2 ± 0.43
4 | MNTLRIGLVSISDRASSGVYQDKGIPALEEWLTSALTTPFELETRLIPDEQAIIEQTLCELVDEMSCHLVLTTGGTGPARRDVTPDATLAVADREMPGFGEQMRQISLHFVPTAILSRQVGVIRKQALILNLPGQPKSIKETLEGVKDAEGNVVVHGIFASVPYCIQLLEGPYVETAPEVVAAFRPKSARRDVSE [P0AF03] | 4.79 ± 0.77 | 4.24 ± 0.53 | 4.594 ± 0.04 | 5.05 ± 0.59 | 4.82 ± 0.54 | 2.8 ± 0.21 | 5.83 ± 0.49 | 9.32 ± 0.82 | 4.61 ± 0.27 | 8.09 ± 0.46 | 5.41 ± 0.4 | 11.3 ± 0.16
5 | MNTRWQQAGQKVKPGFKLAGKLVLLTALRYGPAGVAGWAIKSVARRPLKMLLAVALEPLLSRAANKLAQRYKR [P0AFV8] | 3.32 ± 0.39 | – | – | – | – | – | – | – | – | – | – | –
6 | MNTSHVRVVTHMCGFLVWLYSLSMLPPMVVALFYKEKSLFVFFITFVIFFCIGGGAWYTTKKSGIQLRTRDGFIIIVMFWILFSVISAFPLWIDSELNLTFIDALFEGVSGITTTGATVIDDVSSLPRAYLYYRSQLNFIGGLGVIVLAVAVLPLLGIGGAKLYQSEMPGPFKDDKLTPRLADTSRTLWITYSLLGIACIVCYRLAGMPLFDAICHGISTVSLGGFSTHSESIGYFNNYLVELVAGSFSLLSAFNFTLWYIVISRKTIKPLIRDIELRFFLLIALGVIIVTSFQVWHIGMYDLHGSFIHSFFLASSMLTDNGLATQDYASWPTHTIVFLLLSSFFGGCIGSTCGGIKSLRFLILFKQSKHEINQLSHPRALLSVNVGGKIVTDRVMRSVWSFFFLYTLFTVFFILVLNGMGYDFLTSFATVAACINNMGLGFGATASSFGVLNDIAKCLMCIAMILGRLEIYPVIILFSGFFWRS | – | > 8 | 5.64 ± 0.43 | – | 6.77 | > 4 | – | 13.5 | – | > 16 | > 8 | –
7 | MNTTPSQRLGFLHHIRLVPLFACILGGILVLFALSSALAGYFLWQADRDQRDVTAEIEIRTGLANSSDFLRSARINMIQAGAASRIAEMEAMKRNIAQAESEIKQSQQGYRAYQNRPVKTPADEALDTELNQRFQAYITGMQPMLKYAKNGMFEAIINHESEQIRPLDNAYTDILNKAVKIRSTRANQLAELAHQRTRLGGMFMIGAFVLALVMTLITFMVLRRIVIRPLQHAAQRIEKIASGDLTMNDEPAGRNEIGRLSRHLQQMQHSLGMTVGTVRQGAEEIYRGTSEISAGNADLSSRTEEQAAAIEQTAASMEQLTATVKQNADNAHHASKLAQEASIKASDGGQTVSGVVKTMGAISTSSKKISEITAVINSIAFQTNILALNAAVEAARAGEQGRGFAVVASEVRTLASRSAQAAKEIEGLISESVRLIDLGSDEVATAGKTMSTIVDAVASVTHIMQEIAAASDEQSRGITQVSQAISEMDKVTQQNASLVEEASAAAVSLEEQAARLTEAVDVFRLHKHSVSAEPRGAGEPVSFATV | – | – | – | – | – | 2.39 ± 0.0043 | 4.42 ± 0.23 | 6.36 ± 0.25 | – | – | – | –

Source: the supplement of paper PMC11246515
